Measurements reported in patent US20240226314A1 (Sanofi, published 2024).
Where two headings read alike, the source gives them in different places.

B1: cTfR expressed on 300.19 cells (SEQ ID NO: 2) (receptor)
chain: MMDQARSAFSNLFGGEPLSYTRFSLARQVDGDNSHVEMKLGVDEEENTDNNTKANGTKPKRCGGNICYGTIAVIIFFLIGFMIGYLGYCKGVEPKTECERLAGTESPAREEPEEDFPAAPRLYWDDLKRKLSEKLDTTDFTSTIKLLNENLYVPREAGSQKDENLALYIENQFREFKLSKVWRDQHFVKIQVKDSAQNSVIIVDKNGGLVYLVENPGGYVAYSKAATVTGKLVHANFGTKKDFEDLDSPVNGSIVIVRAGKITFAEKVANAESLNAIGVLIYMDQTKFPIVKADLSFFGHAHLGTGDPYTPGFPSFNHTQFPPSQSSGLPNIPVQTISRAAAEKLFGNMEGDCPSDWKTDSTCKMVTSENKSVKLTVSNVLKETKILNIFGVIKGFVEPDHYVVVGAQRDAWGPGAAKSSVGTALLLKLAQMFSDMVLKDGFQPSRSIIFASWSAGDFGSVGATEWLEGYLSSLHLKAFTYINLDKAVLGTSNFKVSASPLLYTLIEKTMQDVKHPVTGRSLYQDSNWASKVEKLTLDNAAFPFLAYSGIPAVSFCFCEDTDYPYLGTTMDTYKELVERIPELNKVARAAAEVAGQFVIKLTHDTELNLDYERYNSQLLLFLRDLNQYRADVKEMGLSLQWLYSARGDFFRATSRLTTDFRNAEKRDKFVMKKLNDRVMRVEYYFLSPYVSPKESPFRHVFWGSGSHTLSALLESLKLRRQNNSAFNETLFRNQLALATWTIQGAANALSGDVWDIDNEF
notes: Murine pre-B cell line 300.19, stably transfected with a plasmid expressing cTfR; also called cynomolgus TfR; cTfR-expressing 300.19 cells
B4: His-tagged cynomolgus monkey TfR ectodomain (cyTFRC_89_760; mature protein) (receptor)
chain: CKGVEPKTECERLAGTESPAREEPEEDFPAAPRLYWDDLKRKLSEKLDTTDFTSTIKLLNENLYVPREAGSQKDENLALYIENQFREFKLSKVWRDQHFVKIQVKDSAQNSVIIVDKNGGLVYLVENPGGYVAYSKAATVTGKLVHANFGTKKDFEDLDSPVNGSIVIVRAGKITFAEKVANAESLNAIGVLIYMDQTKFPIVKADLSFFGHAHLGTGDPYTPGFPSFNHTQFPPSQSSGLPNIPVQTISRAAAEKLFGNMEGDCPSDWKTDSTCKMVTSENKSVKLTVSNVLKETKILNIFGVIKGFVEPDHYVVVGAQRDAWGPGAAKSSVGTALLLKLAQMFSDMVLKDGFQPSRSIIFASWSAGDFGSVGATEWLEGYLSSLHLKAFTYINLDKAVLGTSNFKVSASPLLYTLIEKTMQDVKHPVTGRSLYQDSNWASKVEKLTLDNAAFPFLAYSGIPAVSFCFCEDTDYPYLGTTMDTYKELVERIPELNKVARAAAEVAGQFVIKLTHDTELNLDYERYNSQLLLFLRDLNQYRADVKEMGLSLQWLYSARGDFFRATSRLTTDFRNAEKRDKFVMKKLNDRVMRVEYYFLSPYVSPKESPFRHVFWGSGSHTLSALLESLKLRRQNNSAFNETLFRNQLALATWTIQGAANALSGDVWDIDNEF
notes: also called cTfR; cTfR ectodomain

How the values were obtained:
[1] = target: T1, anti-TfR 531v25-Fab-FcOL-LC-GAA (Homo sapiens (Human), UniProt P0DOX5 223-448 = IgG part); experiment: flow cytometry on TfR-expressing 300.19 cells
T1 construct: Monovalent Fab-FcOL with GAA fused to the C-terminus of the light chain

[2] = target: T2, anti-TfR 531v25-Fab-FcOL-GAA; experiment: flow cytometry on TfR-expressing 300.19 cells
T2 construct: Monovalent Fab-FcOL with GAA fused to the C-terminus of the Fc polypeptide

[3] = target: T3, His-tagged human TfR ectodomain (hTFRC_89-760_G142S; mature protein) (human, UniProt P02786 89-760); experiment: SPR, His-tagged TfR ectodomain captured on anti-His, 1:1 fit
T3 construct: It carries the G142S haplotype; also called hTfR ectodomain
Procedure: (§1) Binding of the humanized Fab variants to human, cynomolgus and mouse TfR was assessed using SPR at pH 7.4. Experiments were run on a Bruker MASS-2 instrument with HBS-EP+ as running buffer and sample diluent (Cytiva Life Sciences, #BR100826). HCA sensor chips (Bruker, #1862614) were immobilized with anti-His antibody (His capture kit, Cytiva Life Sciences, #28995056) following manufacturer's instructions. About 10,000 RU of anti-His was obtained. His-tagged hTfR ectodomain (SEQ ID NO: 39), cTfR ectodomain (SEQ ID NO: 40) or mouse TfR ectodomain (SEQ ID NO: 41) (5 μg/ml) was captured for 1 min at 10 μL/min. Concentration series of the humanized Fab variants were then injected for 4 min at 30 μL/min over hTfR surfaces and dissociation was monitored for 5 min. Surface was regenerated with one 1 min pulse of 10 mM glycine-HCl at pH 1.5.

[4] = target: B4; experiment: as above
Procedure: as §1

[5] = target: T3, His-tagged human TfR ectodomain …; experiment: as above; remark: listed apart in the source
Procedure: as §1

[6] = target: B4; experiment: as above
Procedure: as §1

[7] = target: B4; experiment: SPR; KD on cTfR against KD on hTfR
Procedure: as §1

[8] = target: B4; experiment: SPR; KD on cTfR against KD on hTfR
Procedure: as §1

[9] = target: His-tagged mouse TfR ectodomain (mTFRC_89_764; mature protein) (mouse, UniProt Q62351 89-763); experiment: SPR, His-tagged mTfR ectodomain captured on anti-His
Procedure: as §1

[10] = target: T4, hTfR expressed on 300.19 cells (SEQ ID NO: 1) (human, UniProt P02786 1-760); experiment: flow cytometry on hTfR-expressing 300.19 cells
T4 construct: Murine pre-B cell line 300.19, stably transfected with a plasmid expressing hTfR; also called human TfR; hTfR-expressing 300.19 cells
Procedure: (§2) The binding kinetics of the four anti-TfR-GAA molecules to hTfR-expressing 300.19 cells and cTfR-expressing 300.19 cells were determined by flow cytometry. 300.19 is a murine pre-B cell line, originating from a lymphoma, and was stably transfected by nucleoporation with a plasmid expressing either hTfR or cTfR (SEQ ID NO: 1 and SEQ ID NO: 2, respectively).
(§3) 300.19 TFRC-expressing cells were coated at 5×10⁵ cells/well on 96-well High Bind plate (MSD L15XB-3) and 100 μL/well of anti-TfR-GAA molecule were added and incubated for 45 min at 4° C. and washed three times with PBS 1% BSA. […] Antibody binding was evaluated after centrifugation and resuspension of cells by adding 200 μl/well PBS 1% BSA and read using Guava® easyCyte™ 8HT Flow Cytometry System.

[11] = target: B1; experiment: flow cytometry; EC50 on cTfR cells against EC50 on hTfR cells
Procedure: as §2, §3

[12] = target: B1; experiment: flow cytometry on cTfR-expressing 300.19 cells
Procedure: as §2, §3

[13] = target: T1, anti-TfR 531v25-Fab-FcOL-LC-GAA; experiment: SPR, His-tagged TfR ectodomain captured on anti-His, 1:1 fit
Procedure: as §1
(§4) Affinity by SPR was also measured for the 531v25-mAb-GAAx2 molecule (a GAA sequence fused to both HCs).

[14] = target: T2, anti-TfR 531v25-Fab-FcOL-GAA; experiment: as above
Procedure: as §1, §4

T2 sequence (chain, as listed by the source): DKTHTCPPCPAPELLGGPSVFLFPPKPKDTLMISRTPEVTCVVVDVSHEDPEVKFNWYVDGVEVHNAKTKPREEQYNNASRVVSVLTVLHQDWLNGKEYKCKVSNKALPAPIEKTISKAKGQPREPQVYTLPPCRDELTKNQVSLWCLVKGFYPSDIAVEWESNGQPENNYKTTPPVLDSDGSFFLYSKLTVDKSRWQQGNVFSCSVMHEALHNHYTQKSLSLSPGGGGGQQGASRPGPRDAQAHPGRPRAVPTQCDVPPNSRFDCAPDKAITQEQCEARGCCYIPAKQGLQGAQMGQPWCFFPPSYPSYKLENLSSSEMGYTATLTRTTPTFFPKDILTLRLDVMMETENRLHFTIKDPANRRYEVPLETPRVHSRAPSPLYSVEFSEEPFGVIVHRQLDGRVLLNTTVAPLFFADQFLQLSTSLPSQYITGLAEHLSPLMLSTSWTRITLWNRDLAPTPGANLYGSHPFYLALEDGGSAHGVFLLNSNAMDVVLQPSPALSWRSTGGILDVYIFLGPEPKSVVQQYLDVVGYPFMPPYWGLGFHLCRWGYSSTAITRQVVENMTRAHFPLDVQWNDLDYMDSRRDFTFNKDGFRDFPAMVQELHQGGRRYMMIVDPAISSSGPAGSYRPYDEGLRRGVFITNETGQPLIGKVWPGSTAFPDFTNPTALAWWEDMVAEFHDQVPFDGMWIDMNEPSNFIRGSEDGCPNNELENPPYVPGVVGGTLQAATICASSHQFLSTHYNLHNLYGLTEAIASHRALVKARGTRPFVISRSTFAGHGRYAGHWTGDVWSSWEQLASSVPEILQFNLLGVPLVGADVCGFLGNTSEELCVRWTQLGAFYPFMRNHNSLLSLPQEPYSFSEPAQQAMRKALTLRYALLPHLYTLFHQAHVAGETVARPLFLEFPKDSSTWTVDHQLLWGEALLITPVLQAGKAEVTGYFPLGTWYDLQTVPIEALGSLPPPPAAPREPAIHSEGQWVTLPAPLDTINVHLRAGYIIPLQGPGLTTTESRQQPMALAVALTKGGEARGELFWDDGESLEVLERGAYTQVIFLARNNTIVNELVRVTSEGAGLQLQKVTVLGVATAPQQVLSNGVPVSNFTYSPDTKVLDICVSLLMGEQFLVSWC
Chain of His-tagged mouse TfR ectodomain (mTFRC_89_764; mature protein) (Q62351 other isoform, or with tags, fused parts or gaps): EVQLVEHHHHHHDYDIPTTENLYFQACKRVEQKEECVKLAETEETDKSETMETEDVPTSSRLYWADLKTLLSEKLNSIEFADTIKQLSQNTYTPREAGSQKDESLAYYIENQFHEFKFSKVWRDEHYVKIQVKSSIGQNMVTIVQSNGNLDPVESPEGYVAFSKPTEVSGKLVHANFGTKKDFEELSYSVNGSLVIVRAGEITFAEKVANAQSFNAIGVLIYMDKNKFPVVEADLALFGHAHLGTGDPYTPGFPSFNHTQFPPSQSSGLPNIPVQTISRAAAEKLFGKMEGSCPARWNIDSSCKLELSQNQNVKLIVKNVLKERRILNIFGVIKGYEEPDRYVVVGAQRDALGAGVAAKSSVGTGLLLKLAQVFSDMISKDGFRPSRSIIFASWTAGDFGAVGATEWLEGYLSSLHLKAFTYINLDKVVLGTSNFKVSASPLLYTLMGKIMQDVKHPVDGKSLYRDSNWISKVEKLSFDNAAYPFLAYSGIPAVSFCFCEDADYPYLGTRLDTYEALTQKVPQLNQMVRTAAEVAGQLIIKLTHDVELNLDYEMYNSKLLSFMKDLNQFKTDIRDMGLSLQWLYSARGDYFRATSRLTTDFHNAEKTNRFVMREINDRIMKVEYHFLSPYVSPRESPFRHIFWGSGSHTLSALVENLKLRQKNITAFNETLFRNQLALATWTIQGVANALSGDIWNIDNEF

B1
binding result [1]: binds | binding result [2]: binds

B2: 531v25 Fab (Fab, V domains shown)
VH: QVQLVQSGAEVKKPGASVKVSCKASGYTFTRYYLNWVRQAPGQGLEWIGMIDPSVSETHYAQKFQGRATLTVDKSTSTAYMELSSLRSEDTAVYYCSQIRLPYYYAMDSWGQGTTVTVSS
VL: DIQMTQSPSSLSASVGDRVTITCRASQDISSFLNWYQQKPGKAPKLLIYYTSRLQSGVPSRFSGSGSGTDYTLTISSLQPEDFATYYCQQGNTLPRTFGGGTKVEIKR
notes: The His-tag was removed with TEV protease before SPR
Kd [3]: 4.45 nM | Kd [4]: 55.8 nM | Kd [5]: 4.5 nM | Kd [6]: 55.8 nM | Cynomolgus/human KD ratio [7]: 12.4 | Cynomolgus/human KD ratio [8]: 12.5 | binding result [9]: no binding

B3: anti-TfR 531v25mAb-GAA (antibody, human IgG1, kappa)
heavy 1: QVQLVQSGAEVKKPGASVKVSCKASGYTFTRYYLNWVRQAPGQGLEWIGMIDPSVSETHYAQKFQGRATLTVDKSTSTAYMELSSLRSEDTAVYYCSQIRLPYYYAMDSWGQGTTVTVSSASTKGPSVFPLAPSSKSTSGGTAALGCLVKDYFPEPVTVSWNSGALTSGVHTFPAVLQSSGLYSLSSVVTVPSSSLGTQTYICNVNHKPSNTKVDKKVEPKSCDKTHTCPPCPAPELLGGPSVFLFPPKPKDTLMISRTPEVTCVVVDVSHEDPEVKFNWYVDGVEVHNAKTKPREEQYNNASRVVSVLTVLHQDWLNGKEYKCKVSNKALPAPIEKTISKAKGQPREPQVCTLPPSRDELTKNQVSLSCAVKGFYPSDIAVEWESNGQPENNYKTTPPVLDSDGSFFLVSKLTVDKSRWQQGNVFSCSVMHEALHNRFTQKSLSLSPG
heavy 2: not shown
light: not shown
EC50 [10]: 2.7 nM | Cynomolgus/human ratio (TfR) [11]: 1 | EC50 [12]: 2.6 nM

B4
Kd [13]: 154 nM | Kd [14]: 89 nM
